A protein production outcome set (Wang et al. 2014)

Test: label from the status in PepcDB records

## MFEGERHMFDVQREELIWGDRKLVLETGKTARQADGSVVATYGETTVLATVVAGKEPKAGIDFLPLTVNYQERAYAAGRIPGGYFKREGRPSEKETLVSRLIDRPIRPLFVEGWRNDTQVVVTVLSHDLENDPDIVAMVAASAALTLSGVPFMGPIGAARVGYLNGGYKLNPLVTEIAESTLDLVVAGTQDAVLMVESEAKELSEDVMLGAVMFGHKHFQPVIEAIIRLAEKAAKEPRDFTPPENADVEAAVLAVAETELREAYKKTVKQERYAAVDAVKAKVVAALCPAEGEQKFSPEKVKAAFKEAQSKVVRWNILDTGSRIDGRDVKTVRSIVSEVGVLPRAHGSSLFTRGETQALVVATLGTGEDEQFIDALEGTYKERFLLHYNFPPYSVGETGRMGSPGRREIGHGKLAWRAIRPVLPPAHEFPYTIRVVSEITESNGSSSMASVCGGSLSLMDAGVPLRRPVAGIAMGLILEGERFAVLSDILGDEDHLGDMDFKVAGSEEGITSLQMDIKIAGITEEIMKIALAQAKDGRAHILGEMSKALTAARPELGEYAPRIETMQIPTDKIRDVIGTGGKIIREIVEKTGAKINIEDTGIVKIASSDGKAIKAAYNWIRSIVAEPEAGTIYDGTIVKIMEFGAFVNFFGAKDGLVHISELAAQRVAKVGDVVKEGQKVKVKFLGADERGKIRLSMKVVDQETGEDLTEKLKAERAERGEPEREERSDRGDRGDRGPRRDRGERRRESSGE
  protein production: failed

## MVLAGGVGKRLLPLTRERPKPYLPLAGKPLYMYAVEQVAMVRSLLDRAVMVTPPGHPTPPGSLPSWLDTVEQQGEGVEAGLATALKRLGGGEEVVVSFVGYLARPNTLVRHVLDFYSVTRYKLVLALAPVTRGSESFGFVDADPSTGRVLGFSGSREEWMAGRGRVFAGVLAGDPEALEVLAGEGFVEGINTLARRGLVGSVVWPGEWLEVGYPCDLLEAPRLVVEAWAAVISAKARVARSSVIQGGVVIEEDAEVGEGAVVEGPAYLGRGAVVGRNSVVGPGVVLEEGAVVGDLVSIERSVMLERAEASGPSRLEGVVIGDGAYIAPLAAATNREGCTVVAPKTRLGPRATLEPGKTYTLEHHHHHH
  protein production: failed

## SPESLYLLWGPQMQFFFNDAYRPVLGPRLANALGQTIQTLWADAWPDVQPMVEQAFLGYSCRHEDLPVNMQRYPGEELTWWSFSMSPVYDEDDEQVLGVLCHTVETTDRVLLARHARQTEAH
  protein production: failed

## MDTAVVYYVLATALVLIGLAGVILPALPGLPLVFAGLLVAAWADNFTHIGWVTLVVLGLITALSYLVDFLATLYGAQRVGASKMALWGSVIGGIAGIFFMPIGLFIGPFAGAWLGEYYQTRKSGQATKVGIGTWVGIMLGTATKLALGLCMLGAFAIGWFF
  protein production: failed

## MFNGMVRTIRDSVVGTYPSCHVSSRLEERRAKQRAMRQERRRKPDKPDDFVTYEDSGSDEETPQQQEEVLNTSYNLCDYLRSRESGLRDRRSVNVEYTSRYVLTHDMLRETQISLGYINKVFCSKWLSSRQVVFGTKCNKLLVYDVNMRRVDAIPTLSNSRANHPEVQGGLHAIELSPSRSFLATGARNSSDIAVYRLPTLDPVCVGEGGHRDLIMGMCWLDDQFLVSGSKDSRMALWRINEDHMEFPDGGEEACPTFATIHPLSVKEVRTAQRIRSLCFNKEFKEIAALSLNGYIHIFNAETFKQTLSRKLPNCQDNVSIAYHSDGLYAVGCRSYTILLDARTLQTIKKITSRYSGCGIRATSFEGNLLTVGTGLGMLLFYDIRAGKYLESSVNASRTVALKCSKGIVYPEDEMDGFQQVKYVPAIYTHCYDSTRMRLFAAGGPLPATLVGNYAGVWQ
  protein production: failed

## MAIIASNNSWDLYQLAVVILNYRTPQLVVDCLASLVSQIDPQTQQVIVVDNASGDDSVEEIEKAIANNNWQDWVRLLPSDVNGGFSAGNNLGIQAIRAENYLLLNSDTIVRPGAIQTLLVALEQYPEAGLFSPRLEWPDGTPQISCFRDHSPLSEMIDGARTSVITKLLQPFDVPIPVTEQSFEPQWTSFACVLIRRSVVEQIGLMDDGYFMYYDDIDYCRRARQAAWKIRYIPQASVVHLRGGSGSVKSDVASRKRPRPYLYASRSRYFAKFYGPLGLALANLGWLGGWGIAALREILGQKEPHTCDRQWQDIWFQWRQPLKPYRPELEHHHHHH
  protein production: not failed

## MKIQDLLRKDIMILDLQAISKEVAIDEMITKLVEKDIVHDFDVFKKSIMTREEQTSTGLGDGIAMPHSKNIVVDKPAVLFAKSNKGVDYKALDGQPTDLFFMIAAPQGANDTHLAALAELSQYLLKDGFADKLRAAATPEAVIAVFDEASTAKEEV
  protein production: failed

## NIKNILSERVSAAMVAAGLPEGTNPAISLSNRPQFGDYQANGVMGAAKKLKTNPRELATKVVAELDLDGIASKIELAGPGFINIHLDESWLAAQLNEVAQDDFIGVAQRGTT
  protein production: not failed

## MMEHHKVHTTIQALQAKRKKLLTELAELEAEIKVSSERKSSFNISLSPSLLAEIEEIEYEEKTSKERRINHSVLLSPSFMAKVDEYMKEKGFSNRSLLFEKALEFYMLKHP
  protein production: failed

## MNLTFDYTKEPSRDVFCIDVKSFYASVECVERGLDPLKTMLVVMSNSENSGGLVLAASPMAKKVLGISNVTRKNEVPDHPNLIIVPPRMKLYMKKNQEINNLYKRFVSDEDHSVFSVDESFLDVTASLTYFKCDTAYKLAKIIQRVIYNHMGLYVTIGIGENPLLAKLALDNEAKNAPGFVAEWRYEDVPEKVWPISPLTEFCGIGNRMAARLKKLGIRSIYDLAHIEPYMLKERFGIMGLQLYAHSWGIDRSFLGQKAGRPTEKSFGNSQVLPKDYANKEQIKLVLKELSDQVASRLRMASCQTTCVSLFVGYSKGQTDKYGQTGWRRQMKVEPSNNTKVLTEHVLRLFEENYAPGVDVRNLGVSYGRLVWNKNLQLDLFSVPEEQIHETDMYFLIDKIRQKFGFKALIHASSLMEGATAISRASLVGGHAGGTVGLGTTK
  protein production: failed

## MNEQRLSMRLERVATHVPAGARLADIGSDHGYLPVALLNRGAVSAAVAGEVALTPFYAAERTVRENDLDQQISVRLADGLAAIEPTDRITAISLCGMGGETIRDILESGKARLSGQERLILQPNGGEQPLRVWLMEHNYRILDEEVLRENRFDYEIIVAERTGPMIYTAEQLYFGPIQMQTRSPAFLLKWQRLLGKKHKALSNFARARKAVPEEKMQDLAQQIRWITALLN
  protein production: failed

## MTDARTTVVVITHNRCAEVLRTLDRLAELPERPAVIVTDNGSTDGTAAAVARHHPGVRLLRSGRNLGAVGRNLAVRQVTTPYVAFCDDDSWWAPGSLSGAADLLDRYPAVGSVTARILVEPEGTEDPIVEELRDSPVPRPDWLPGPALGSFLAAATVLRTDAFRAAGGFHPRLWLGGEEELLAADLAANGWWLTYAGQLTIHHHPSGVRDSTVRRSHGIRNTLWFTWLRRPVGPALRRTLHLARTVPRDTASLRAFAEATAALPWVLRERRVLPPEVEARLRALEPAQRDSTARSYTGLEHHHHHH
  protein production: failed

## MILLVPILIITLMYFMFENVPHRPGTPSGFNTACLVLLGLFPLFVMFVITAITMQRERASGTLERILTTPLRRLDLLAGYGTAFSIAAAAQATLACIVAFWFLGFDTAGSPVWVFAIAIVNAVLGVGLGLLCSAFARTEFQAVQFIPLVMVPQLLLAGIIVPRALMPTWLEWISNVMPASYALEALQQVGAHPELTGIAVRDVVVVLSFAVASLCLAAVTLRRRTS
  protein production: failed

## NQLWTVEEQKKLEQLLIKYPPEEVESRRWQKIADELGNRTAKQVASQVQKYFIKLTKAGIPV
  protein production: not failed

## MELMIGRVVKSHGIRGEVAIEVTTEEPEIRFAQGEVLNGRQGGKEHSLTIASVRPHQNRLLVKFKEIADRTAADSLRGTRFFAAPLDDDVDDGFYDHELEGLAVIHGEEKIGEVSGVIHGPAQSLLEVTLESGKEVLIPFVHDIVPEVDLDAGTCVITPPEGLLELLEHHHHHH
  protein production: not failed

## MAIKVGINGFGRIGRSFFRASWGREEIEIVAINDLTDAKHLAHLLKYDSVHGIFKGSVEAKDDSIVVDGKEIKVFAQKDPSQIPWGDLGVDVVIEATGVFRDRENASKHLQGGAKKVIITAPAKNPDITVVLGVNEEKYNPKEHNIISNASCTTNCLAPCVKVLNEAFGVEKGYMVTVHAYTNDQRLLDLPHKDFRRARAAAINIVPTTTGAAKAIGEVIPELKGKLDGTARRVPVPDGSLIDLTVVVNKAPSSVEEVNEKFREAAQKYRESGKVYLKEILQYCEDPIVSTDIVGNPHSAIFDAPLTQVIDNLVHIAAWYDNEWGYSCRLRDLVIYLAERGL
  protein production: not failed

## MRICLFLCLCLCMASPALAQVAVFPALSGKTDAQTLVVYSSLDEPLATPMIEGFQKANPDIAVHYEDMLTGEIYDRIVKETDAGKKTADFAFSSAMDLQVKLSNDGYAQRSDLAMSARWPAWANWRNTAYALTFEPAVFVYHKPSFTTEKPPATRAEFVDYLERHAKEVHGRIATYDIERSGVGFLFMSRDQEQFGDIWSVIKAMGAAGVKVYSTSSAILERVSDGRFVLGYNILGSYAADWASRHPDVGIVLPKDYTVVMSRIGLVPEAAANPELGRRYLEFFMSKEGQTIMARQLQIPAVSPEVAGENTANTMQAIHGAQLRPVPVSPGLMVYLDQVKRSR
  protein production: not failed

## NDVFSDEVKKIDDNTFIVEGRMPLDDFNKMFHVELPARGVDTVAGFVLTLTGTIPEEDDKVVVEYDTLRFTVEEMNDARLVSVRVEKDI
  protein production: failed

## MNSTISFLYQPKVQNGSIISVEALLRVPGVTNIESYVSMVTNKPLFDYTIIRKVLSDRREYHENIGYSFPVSINISIQSLESDYFINKTSKLLKNEPNVTLEITENDSYLSLERVKESMGILKSLGVKFSLDDFGKGFSDIEQVLSLDLDEIKVDGSLVNDIENNFYKFRHLKYTLDELEDISNFNIVIERVENKKQVNLIESLGKKVSYQGYFFYKPMNLFDLTIATPEPHKEEKHEPKLLLEKLIYELIKTDNDNECAQLVNDIHSVDIFNNLGSKVCDSLTITEVKKSILKKYNKIALNPNSPENLFFKSYLNCMSRLVIIRDSEGNALFNNQAHINFMNVDLVGMPLESIYEKFEQYESCIAIDKELIESKSNFLAVREVVDFDGQTKSYYTFRQKINHYGKTLIITIVYDEDDRDSFPRDALTDCFDRTILNSYYMNQFNMVAFIDMDGFKKINDNFSHKLGDDCLSKFVMYLKHELRKEDLIIRYGGDEFLIFTQWDDRHTFESRLNLIRNKVEKLFKSNNIDLSFSYGIEDLSKGMEIAINCADEKMYADKSRKLQ
  protein production: failed

## MSLSKPLFIFEMANNHMGNVEHGVALIRAIRESCQGFDFDFGFKLQYRNLDTFIHSSFKGRDDVKYVKRFEETRLQPEQMQKLVAEMKANGFKAICTPFDEESVDLIEAHGIEIIKIASCSFTDWPLLERIARSDKPVVASTAGARREDIDKVVSFMLHRGKDLTIMHCVAEYPTPDDHLHLARIKTLRQQYAGVRIGYSTHEDPDLMEPIMLAVAQGATVFEKHVGLPTDQYGINNYSANPEQVRRWLAAAARALAMLGDGEDDAVSETEQASLRSLRRGVFATRPVAAGEALTADNVSFAFPPVEGQLTANEWSKYVRYTAKTPIAADAPVMAADLEPVNEGHHHHHH
  protein production: not failed

## MYKLISPHLSGHAMWKEALEEFGSGPIHGSGYFENYLPIDYSEAGFHHYLKERTDAADPSVPPPEGFVHCSYFWIVDDDDVLVGFLALRHELNQHLLEVAGHIGYGVRPSARRKGAATAALKLGVHEAQALGIDKVLLCVAGDNEASRNVIEKCGGVYESTIRGMRRYWIATDS
  protein production: failed

## MNLLTVSTDLISIFLFTTLFLFFARKVAKKVGLVDKPNFRKRHQGLIPLVGGISVYAGICFTFGIVDYYIPHASLYLACAGVLVFIGALDDRFDISVKIRATIQAAVGIVMMVFGKLYLSSLGYIFGSWEMVLGPFGYFLTLFAVWAAINAFNMVDGIDGLLGGLSCVSFAAIGMILWFDGQTSLAIWCFAMIAAILPYIMLNLGILGRRYKVFMGDAGSTLIGFTVIWILLETTQGKTHPISPVTALWIIAIPLMDMVAIMYRRLRKGMSPFSPDRQHIHHLIMRAGFTSRQAFVLITLAAALLASIGVLAEYSHFVPEWVMLVLFLLAFFLYGYCIKRAWKVARFIKRVKRRLRRNRGGSPNLTK
  protein production: failed
